PMC6544321

B1: full-length Chz1 (natural protein)
chain: MSDEAKEKRELESQKESSHNKSEKSVEPKPKRRRRRNYDDYDAEVAKEETKAKNGLTKSENNGTVEDSESDMDDAKLDALMGNEGEEEEDDLAEIDTSNIITSGRRTRGKVIDYKKTAEELDKKEPSTGSKDDVGYGEKEEDDEDEEDDDFKE
B2: middle and C-terminal region of Chz1 (Chz1 64-153) (domain or fragment)
chain: TVEDSESDMDDAKLDALMGNEGEEEEDDLAEIDTSNIITSGRRTRGKVIDYKKTAEELDKKEPSTGSKDDVGYGEKEEDDEDEEDDDFKE
B3: middle region of Chz1 (Chz1 64-124) (domain or fragment)
chain: TVEDSESDMDDAKLDALMGNEGEEEEDDLAEIDTSNIITSGRRTRGKVIDYKKTAEELDKK

Columns and labels:
[1] = biological target: yeast single-chain H2A.Z-H2B (yeast); assay: ITC; MicroCal VP-ITC, 25°C, 20 mM MES (pH 6.0), 0.5 M NaCl; chaperone (50 or 150 μM) injected into histones (5 μM scZB or 15 μM scAB and mutants) in the cell; one-site fit
[2] = biological target: single chain H2A-H2B with H2A P50A/N91G (yeast); assay: as above
[3] = biological target: single-chain H2A.Z-H2B with H2A.Z A57P (yeast); assay: as above
[4] = biological target: single-chain H2A.Z-H2B with H2A.Z A57P/G98N (yeast); assay: as above
[5] = biological target: single-chain H2A.Z-H2B with H2A.Z G98N (yeast); assay: as above
[6] = biological target: single-chain H2A.Z-H2B with H2A.Z RA→GNV (yeast); assay: as above
[7] = biological target: single-chain H2A.Z-H2B with H2B Y45A/M62A (yeast); assay: as above
[8] = biological target: yeast single-chain H2A.Z-H2B (yeast); assay: ITC; 0.2 M NaCl (Table 1); Swc2-Z or Chz1-M injected into single-chain histone dimers; otherwise as the ITC methods (25°C, 20 mM MES pH 6.0)

Binder	Kd [1] [nM]	stoichiometry N [1] [sites]	Kd [2] [nM]	stoichiometry N [2] [sites]	Kd [3] [nM]	stoichiometry N [3] [sites]	Kd [4] [nM]	stoichiometry N [4] [sites]	Kd [5] [nM]	stoichiometry N [5] [sites]	Kd [6] [nM]	stoichiometry N [6] [sites]	Kd [7] [nM]	stoichiometry N [7] [sites]	Kd [8] [nM]	stoichiometry N [8] [sites]
B1	130	1														
B2	120	0.9	160	1.1	740	1	3390	1.1	970	0.9	190	1	1120	0.8		
B3	1060	1													20	1
